# Source: article PMC4650713, “Crystal structure of Bax bound to the BH3 peptide of Bim identifies important contacts for interaction” (Cell Death & Disease, 2015)
# Key:
# [1] = target: the molecule itself; assay: crystal structure; BidBH3, BimBH3mini or BidBH3mini with core/latch dimers of BaxI66AΔC21, BaxΔC26 or BaxΔC28; threefold molar excess of peptide; about 1 M tri-sodium citrate, 0.1 M sodium cacodylate pH 6.5, 277 K
# [2] = target: the molecule itself; assay: crystal structure; BimBH3:BaxΔC26; core/latch dimer induced by peptide, purified by SEC, threefold molar excess of peptide added; 0.1 M sodium bicine pH 9.0, 20% PEG6000, 277 K
Protein,stoichiometry N [1],stoichiometry N [2]
"BaxΔC28 (domain or fragment, Bax truncated at the C terminus by 28 amino acids, with C62S and C126S; lacks F165; two extra residues (Ser–Ser) at the C terminus after intein digestion, a cloning artefact; In the crystal it stands as a core/latch dimer; also called Bax C62S C126S truncated at the C terminus by 28 amino acids) MDGSGEQPRGGGPTSSEQIMKTGALLLQGFIQDRAGRMGGEAPELALDPVPQDASTKKLSESLKRIGDELDSNMELQRMIAAVDTDSPREVFFRVAADMFSDGNFNWGRVVALFYFASKLVLKALSTKVPELIRTIMGWTLDFLRERLLGWIQDQGGWDGLLSYSS",2,–
"BaxI66AΔC21 (domain or fragment, UniProt Q07812 1-171, looked up, BaxΔC21 (Bax truncated at the C terminus by 21 amino acids, with C62S and C126S) with I66A; Called a BaxΔC21 mutant; In the crystal it stands as a core/latch dimer; also called BaxΔC21 mutant I66A) MDGSGEQPRGGGPTSSEQIMKTGALLLQGFIQDRAGRMGGEAPELALDPVPQDASTKKLSESLKRAGDELDSNMELQRMIAAVDTDSPREVFFRVAADMFSDGNFNWGRVVALFYFASKLVLKALSTKVPELIRTIMGWTLDFLRERLLGWIQDQGGWDGLLSYFGTPTWQ",2,–
"BaxΔC26 (domain or fragment, Bax truncated at the C terminus by 26 amino acids, with C62S and C126S; C terminus G166; two extra residues (Ser–Ser) at the C terminus after intein digestion, a cloning artefact; In the crystals it stands as a domain-swapped core/latch dimer, each chain with one BH3 peptide; also called Bax C62S C126S truncated at the C terminus by 26 amino acids) MDGSGEQPRGGGPTSSEQIMKTGALLLQGFIQDRAGRMGGEAPELALDPVPQDASTKKLSESLKRIGDELDSNMELQRMIAAVDTDSPREVFFRVAADMFSDGNFNWGRVVALFYFASKLVLKALSTKVPELIRTIMGWTLDFLRERLLGWIQDQGGWDGLLSYFGSS",–,2
